Test results published in patent publication US20090098103A1.

How the values were obtained:
[1] = biological target: Human Recombinant TFPI (R&D Systems) (human) (UniProt P10646); assay: SPR (Biacore T100), TFPI on CM5 chip, 320 nM FVIIa + 620 nM sTF; 293-F cells
[2] = biological target: Human Recombinant TFPI (R&D Systems) (human) (UniProt P10646); assay: SPR (Biacore T100), TFPI on CM5 chip, 320 nM FVIIa + 620 nM sTF; BHK-21 cells

Chain of UniProt P10646 (P10646 29-282): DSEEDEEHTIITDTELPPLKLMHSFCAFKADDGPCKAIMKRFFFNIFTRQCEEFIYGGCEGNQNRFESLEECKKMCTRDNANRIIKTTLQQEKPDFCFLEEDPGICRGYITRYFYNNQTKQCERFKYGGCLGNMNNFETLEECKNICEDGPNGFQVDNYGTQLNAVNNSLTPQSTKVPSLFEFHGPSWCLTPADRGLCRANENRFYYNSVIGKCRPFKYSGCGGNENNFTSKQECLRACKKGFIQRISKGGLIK

Question: Which Binding (wt/variant) [1] does the source give for “FVIIa variant CB693 K197E/K199E/G237V/M298Q/K341Q (from UniProt P08709 61-466) (enzyme)” here?
Answer: Its Binding (wt/variant) is 23.4.

Question: What about the Dissociation (wt/variant) [1] of the same substance?
Answer: The Dissociation (wt/variant) was 43.5.

Question: For “FVIIa variant CB671 K197E/G237V/K341Q (from UniProt P08709 61-466) (enzyme)”, which Binding (wt/variant) [1] is on record?
Answer: Its Binding (wt/variant) is 18.9.

Question: What about the Dissociation (wt/variant) [1] of the same substance?
Answer: Its Dissociation (wt/variant) is 21.8.

Question: What does the source list for “FVIIa variant CB558 K197E (from UniProt P08709 61-466) (enzyme)”?
Answer: Binding (wt/variant) [1]: 1.4; Dissociation (wt/variant) [1]: 1.3

Question: “FVIIa variant CB734 K341M (from UniProt P08709 61-466) (enzyme)” was tested. Which Binding (wt/variant) [1] did it give?
Answer: Its Binding (wt/variant) is 4.9.

Question: And the Dissociation (wt/variant) [1]?
Answer: Its Dissociation (wt/variant) is 5.4.

Question: Which results are given for “FVIIa variant CB696 G237V/M298Q/K341Q (from UniProt P08709 61-466) (enzyme)”?
Answer: Binding (wt/variant) [1]: 4.5; Dissociation (wt/variant) [1]: 6

Question: With “FVIIa variant CB689 K197E/G237V (from UniProt P08709 61-466) (enzyme)” as the substance, how does the Binding (wt/variant) [1] read?
Answer: Its Binding (wt/variant) is 1.8.

Question: What about the Dissociation (wt/variant) [1] of the same substance?
Answer: Its Dissociation (wt/variant) is 1.6.

Question: With “FVIIa variant CB945 M298Q/K341D (from UniProt P08709 61-466) (enzyme)” as the substance, how does the Binding (wt/variant) [1] read?
Answer: The Binding (wt/variant) was 147.

Question: And the Dissociation (wt/variant) [1]?
Answer: The Dissociation (wt/variant) was 196.

Question: For “FVIIa variant CB859 D196K197insR (from UniProt P08709 61-466) (enzyme)”, which Binding (wt/variant) [2] is on record?
Answer: The Binding (wt/variant) was 0.5.

Question: What about the Dissociation (wt/variant) [2] of the same substance?
Answer: The Dissociation (wt/variant) was 0.5.

Question: With “FVIIa variant CB688 K197E/K199E (from UniProt P08709 61-466) (enzyme)” as the substance, how does the Binding (wt/variant) [1] read?
Answer: The Binding (wt/variant) was 2.2.

Question: And the Dissociation (wt/variant) [1]?
Answer: Its Dissociation (wt/variant) is 2.1.

Question: “FVIIa variant CB854 G237T238insS (from UniProt P08709 61-466) (enzyme)” was tested. Which Binding (wt/variant) [2] did it give?
Answer: Its Binding (wt/variant) is 5.2.

Question: “FVIIa variant CB699 R290K (from UniProt P08709 61-466) (enzyme)” was tested. Which Binding (wt/variant) [1] did it give?
Answer: Its Binding (wt/variant) is 0.7.

Question: What about the Dissociation (wt/variant) [1] of the same substance?
Answer: Its Dissociation (wt/variant) is 0.7.

Question: What does the source list for “wild-type Factor VII polypeptide (CB553-02), activated (FVIIa) (from UniProt P08709 61-466) (enzyme)”?
Answer: Binding (wt/variant) [2]: 1; Dissociation (wt/variant) [2]: 1; Binding (wt/variant) [1]: 1; Dissociation (wt/variant) [1]: 1

Question: Which results are given for “FVIIa variant CB697 R290N (from UniProt P08709 61-466) (enzyme)”?
Answer: Binding (wt/variant) [1]: 1.6; Dissociation (wt/variant) [1]: 1.5

Question: For “FVIIa variant CB902 K197E/M298Q (from UniProt P08709 61-466) (enzyme)”, which Binding (wt/variant) [1] is on record?
Answer: Its Binding (wt/variant) is 2.6.

Question: What about the Dissociation (wt/variant) [1] of the same substance?
Answer: The Dissociation (wt/variant) was 2.3.

Question: How did the Binding (wt/variant) [1] turn out when “FVIIa variant CB701 R290V (from UniProt P08709 61-466) (enzyme)” was run?
Answer: The Binding (wt/variant) was 2.6.

Question: What about the Dissociation (wt/variant) [1] of the same substance?
Answer: The Dissociation (wt/variant) was 2.7.

Question: “FVIIa variant CB858 D196K197insK (from UniProt P08709 61-466) (enzyme)” was tested. Which Binding (wt/variant) [2] did it give?
Answer: Its Binding (wt/variant) is 1.

Question: What about the Dissociation (wt/variant) [2] of the same substance?
Answer: The Dissociation (wt/variant) was 0.8.

Question: With “FVIIa variant CB863 D196K197insM (from UniProt P08709 61-466) (enzyme)” as the substance, how does the Binding (wt/variant) [2] read?
Answer: The Binding (wt/variant) was 0.4.

Question: What about the Dissociation (wt/variant) [2] of the same substance?
Answer: Its Dissociation (wt/variant) is 0.4.

Question: How did the Binding (wt/variant) [2] turn out when “FVIIa variant CB856 G237T238insAS (from UniProt P08709 61-466) (enzyme)” was run?
Answer: The Binding (wt/variant) was 22.8.

Question: And the Dissociation (wt/variant) [2]?
Answer: Its Dissociation (wt/variant) is 154.

Question: Which Dissociation (wt/variant) [1] does the source give for “FVIIa variant CB609 K341Q (from UniProt P08709 61-466) (enzyme)” here?
Answer: The Dissociation (wt/variant) was 19.7.

Question: Which results are given for “FVIIa variant CB670 G237V/K341Q (from UniProt P08709 61-466) (enzyme)”?
Answer: Binding (wt/variant) [1]: 12.8; Dissociation (wt/variant) [1]: 12.4

Question: “FVIIa variant CB592 M298Q (from UniProt P08709 61-466) (enzyme)” was tested. Which Binding (wt/variant) [1] did it give?
Answer: The Binding (wt/variant) was 1.9.

Question: And the Dissociation (wt/variant) [1]?
Answer: The Dissociation (wt/variant) was 1.8.

Question: How did the Binding (wt/variant) [2] turn out when “FVIIa variant CB855 G237T238insV (from UniProt P08709 61-466) (enzyme)” was run?
Answer: Its Binding (wt/variant) is 7.3.

Question: What about the Dissociation (wt/variant) [2] of the same substance?
Answer: The Dissociation (wt/variant) was 16.8.

Question: Which Binding (wt/variant) [1] does the source give for “FVIIa variant CB563 K199E (from UniProt P08709 61-466) (enzyme)” here?
Answer: Its Binding (wt/variant) is 1.4.

Question: And the Dissociation (wt/variant) [1]?
Answer: The Dissociation (wt/variant) was 1.4.

Question: With “FVIIa variant CB692 K197E/G237V/M298Q/K341Q (from UniProt P08709 61-466) (enzyme)” as the substance, how does the Binding (wt/variant) [1] read?
Answer: The Binding (wt/variant) was 15.9.

Question: What about the Dissociation (wt/variant) [1] of the same substance?
Answer: The Dissociation (wt/variant) was 21.5.

Question: Which results are given for “FVIIa variant CB867 K197I198insS (from UniProt P08709 61-466) (enzyme)”?
Answer: Binding (wt/variant) [2]: 0.7; Dissociation (wt/variant) [2]: 0.6

Question: With “FVIIa variant CB862 D196K197insA (from UniProt P08709 61-466) (enzyme)” as the substance, how does the Binding (wt/variant) [2] read?
Answer: Its Binding (wt/variant) is 0.5.

Question: What about the Dissociation (wt/variant) [2] of the same substance?
Answer: Its Dissociation (wt/variant) is 0.4.

Question: Which Binding (wt/variant) [2] does the source give for “FVIIa variant CB864 K197I198insE (from UniProt P08709 61-466) (enzyme)” here?
Answer: Its Binding (wt/variant) is 1.3.

Question: What about the Dissociation (wt/variant) [2] of the same substance?
Answer: Its Dissociation (wt/variant) is 1.1.

Question: Which Binding (wt/variant) [1] does the source give for “FVIIa variant CB694 K199E/K341Q (from UniProt P08709 61-466) (enzyme)” here?
Answer: The Binding (wt/variant) was 18.8.

Question: And the Dissociation (wt/variant) [1]?
Answer: The Dissociation (wt/variant) was 30.7.

Question: For “FVIIa variant CB593 V158D/E296V/M298Q (from UniProt P08709 61-466) (enzyme)”, which Binding (wt/variant) [2] is on record?
Answer: Its Binding (wt/variant) is 1.

Question: And the Dissociation (wt/variant) [2]?
Answer: Its Dissociation (wt/variant) is 1.

Question: And the Binding (wt/variant) [1]?
Answer: The Binding (wt/variant) was 0.8.

Question: And the Dissociation (wt/variant) [1]?
Answer: Its Dissociation (wt/variant) is 0.8.

Question: What does the source list for “FVIIa variant CB637 K197E/K341Q (from UniProt P08709 61-466) (enzyme)”?
Answer: Binding (wt/variant) [1]: 67.2; Dissociation (wt/variant) [1]: 171

Question: How did the Binding (wt/variant) [1] turn out when “FVIIa variant CB735 K341D (from UniProt P08709 61-466) (enzyme)” was run?
Answer: Its Binding (wt/variant) is 186.

Question: What about the Dissociation (wt/variant) [1] of the same substance?
Answer: Its Dissociation (wt/variant) is 381.

Question: What does the source list for “FVIIa variant CB698 R290Q (from UniProt P08709 61-466) (enzyme)”?
Answer: Binding (wt/variant) [1]: 1.3; Dissociation (wt/variant) [1]: 1.2

Question: What does the source list for “FVIIa variant CB608 G237V (from UniProt P08709 61-466) (enzyme)”?
Answer: Binding (wt/variant) [1]: 2.2; Dissociation (wt/variant) [1]: 1.8

Question: What does the source list for “FVIIa variant CB733 K341N (from UniProt P08709 61-466) (enzyme)”?
Answer: Binding (wt/variant) [1]: 11.3; Dissociation (wt/variant) [1]: 63.8

Question: How did the Binding (wt/variant) [1] turn out when “FVIIa variant CB695 G237V/M298Q (from UniProt P08709 61-466) (enzyme)” was run?
Answer: Its Binding (wt/variant) is 0.9.

Question: And the Dissociation (wt/variant) [1]?
Answer: Its Dissociation (wt/variant) is 0.8.

Question: “FVIIa variant CB853 G237T238insA (from UniProt P08709 61-466) (enzyme)” was tested. Which Binding (wt/variant) [2] did it give?
Answer: Its Binding (wt/variant) is 6.5.

Question: And the Dissociation (wt/variant) [2]?
Answer: The Dissociation (wt/variant) was 18.2.

Question: Which Binding (wt/variant) [2] does the source give for “FVIIa variant CB865 K197I198insY (from UniProt P08709 61-466) (enzyme)” here?
Answer: Its Binding (wt/variant) is 1.1.

Question: And the Dissociation (wt/variant) [2]?
Answer: Its Dissociation (wt/variant) is 1.

Question: With “FVIIa variant CB691 K197E/K199E/K341Q (from UniProt P08709 61-466) (enzyme)” as the substance, how does the Binding (wt/variant) [1] read?
Answer: Its Binding (wt/variant) is 33.9.

Question: What about the Dissociation (wt/variant) [1] of the same substance?
Answer: Its Dissociation (wt/variant) is 68.1.

Question: Which results are given for “FVIIa variant CB700 R290M (from UniProt P08709 61-466) (enzyme)”?
Answer: Binding (wt/variant) [1]: 1.1; Dissociation (wt/variant) [1]: 1.1

Question: Which Binding (wt/variant) [2] does the source give for “FVIIa variant CB857 G237T238insSA (from UniProt P08709 61-466) (enzyme)” here?
Answer: The Binding (wt/variant) was 21.5.

Question: What about the Dissociation (wt/variant) [2] of the same substance?
Answer: The Dissociation (wt/variant) was 146.
